In the nanobody polyreactivity screen of Harvey et al. (2022):

Assay: yeast display, Sf9 membrane polyspecificity reagent, FACS + sequencing; frameworks hold sequencing errors
Method in brief: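 A nanobody's polyreactivity label depends on the gate it was sorted from. Yeast display cells were stained with 10% biotinylated, detergent-solubilized Sf9 membrane reagent for 1 hour at 4 °C, enriched on streptavidin microbeads and sorted by FACS. The low and high (top ~1%) gates were set on anti-HA fluorescence for expression and streptavidin fluorescence for reagent binding.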

| Sequence | polyreactivity (PSR sort gate) |
| --- | --- |
| QVQHVESGGGLVQAGGSLRLSCAASGSTFSLYAMGWSRQAPGKERELVAAIRGSGGSPYYADSVKGRFTISRDNAKNTVYLQMNTQTPEDSAVYYCAKKRYHGSNYGYDYWGQGTQVTVSS | high polyreactivity |
| QVQLVESGAGLVQAGGSLRLSCAASGRTFHRYAMGWYRQAPGKERELVATINRNGGSTYYADSVKGRFTISRDNAKNTVYLQMNSLKPDDTAVYYCNKRVYTGYKYSESFDRYYYWGQGTQVTVSS | high polyreactivity |
| QVQLVESGGGLVQAGGSLRLSCAASGRIFWQNAMGWYRQAPGKERELVAAISSRGGTTYYADSVKGRFTISRDNAKNTVYLQMNSLKPEDTAVYYCNAALLLRYRGFFTVAAYDYWGLGTQVTVSS | low polyreactivity |
| QVQLVESGGGLVQAGGSLRLSCASSGFTFYSYAMGWYRQAPGKERELVAAISKRGGSTYYADSVKGRFTISRDNAKNTVYLQMNSLQPEDTAVYYCNADYPYYYGYDYWGQGTQVTVSS | high polyreactivity |
| QVQLVESGGGLVQAGGSLRLSCAASGRIFRYYAMGWYRQAPGKETELVAAISKSGGGTFYADSVKGRFTISRDNAKNPVYLQMNSLKPEDTAVYYCAARDKGLGKHDYWGQGTQVTVSS | high polyreactivity |
| QVQLVESGGGLVQAGGSLRLSCAASGSIFYRYAMGWYRQAPGKERELVAAISSNGVSTYYADSVKGRFTISRDNAKNTVYLQMTSLNPEDTAVYYCARDVYASPRLYTSRYNYWGQGTQVTVSS | low polyreactivity |
| QVQLVESGGGLVQAGGSLRLSCAASGSIFDYYAMGWYRQAPGKERELVATISGGGGTTYYADSVKGRFTISRDTAKNTVYLQMNSLKPEDTAVYYCAADSLGYNYWGQGTQVTVSS | low polyreactivity |
| QVQLVESGGGLVQAGGRLRLRCAASGSIFSPNAMGWYRQAPGKERELVATISFSGGRTYYADSVKGRFTISRDNAKNSVYLQMNSLKPEDTAVYYCAKAYYYTDMDYWGQGTQVTVSS | low polyreactivity |
| QVQLVESGGGLVQAGGSLRLSCAASGFTFEKYVMGWYRQAPGKDREFVAAITRSGGRTYYADSVKGRFTISRDNAKNTVSLQMNSLKPEDTAVYYCAAAFSRSDTGGGSSGQGTQVTVSS | high polyreactivity |
| QVQLVESGGGLVQAGGSLRLSCAASGIIFYEYVMGWYRQAPGKEREVVATISSIGGATYYADSVKGRFTISRDNAKNTVYLQMNSLKPEDTAVDYCAADPEPVVARGGNWYGDDDWGQGTQVTVSS | high polyreactivity |
| QVQLVESGGGLVQAGGSLRLSCAASGSTYHKDAMAWYRQAPGKERELVAAISNGGRTYYADSVKGRFTISRDNAKNTVYLKRNSLKPEATAVYYCAAVPRRGWDIRRYDSWGQGTQVTVSS | high polyreactivity |
| QVQLVESGGRLVQAGGSLRLRCAASGRIIAYYAMGWYRQAPGKERELVAAISRSGGSTYYADSVKGRFTISRDTAQNYVYLQMNSLKPEDTAVYYCAASLIVPYATMNYWGQGTQVTVSS | high polyreactivity |
| QVQLVESGGGLVQAGGSLRLSCAASGRIFPAYAMGWYRQAPGTERELVASIRRGGITYADSVKGRFTISRDNAKNTVYLQMNSLKPEDTAVYYCNADYRGWGYHMDYWGQGTQVTVSS | low polyreactivity |
| QVQLLESGGGLVPAGGSLRLSCAASGRIFSRYAMGWYRQAPGKERELVAAISRNGGSTYYADSVKGRFTISRDNAKNTVYLQMISLKPEDTAVYYCAASYFIYHYDFDYWGQGTQVTVSS | high polyreactivity |
| QVQLVESGGGLVPAGGSLRLSCAASGRIFGYYAMGWYRQATGKERELLATIRWRGGSPYYADSVKGRFTISRDNAKNTVYLQMNSLKPEVTAVYYCAATRARRWSSPGQYGYWGQGTQVTVSS | high polyreactivity |
| QVQLVESGGGLVQAGGSLRLSCADSGIIFRYYAMGWYRQAPGKERELVADISRRGGSTYYADSVKGRFTISRDNAKNTVYLQMNSLKPEDTAVYYCAAKYRVYNYSPWGPYNYWGQVTQVTVSS | high polyreactivity |
| QVQLVETGGGLVQAGGSLRLSCAASGFTFEGYAMGWYRQAPGKERELVAAINGSGGSTYYADSVKGRFTISRDNAKNTVYLQMNSLKPEDTAVYYCAKTDAFYRGYGYWGQGTQVTVSS | low polyreactivity |
| QVQLVESGGGLVHAGGSLRLSCAACGNIFKYYTMGWYREAPGKERELVDAITSGGRTNYADSVKGRFTISRDNAKNTVYLKMNSLKPEDTAVYYCAAYDVIYSQGFDYWGQGTQVTVSS | low polyreactivity |
| QVQLVESGGGLVQAGGSLRLRCAASGRLFQSNAMGWYIQAPGKERELVSGINSDTSTYYADSVKGRFTISRDNAKNTVYLKMNSLKPDDTAVYYCNAGWDTYYWQSTEFDYWGQGTQVTVSS | low polyreactivity |
| QVQLVESVGGLVQAGGSLRLSCAASGRTFRAYAMGWYRQEPGKERELVAAIRWGGGRTYYADSVKGRFTISRDNAKYTVYLQMNSLKPEDTAVYYCAADRTYDYDYWGQGTLVTVSS | high polyreactivity |
| QVQLVESGGGLVQAGGSLRLSCAASGRTFGRYVMGWYRQAPGKERDLVAAITGVGSTKYADSVKGRFTISRDNAKNTVYLQMNSLKPEDTAVYYCAKRYLYDRRHAEYWAANDYWGQGTQVTVSS | low polyreactivity |
| QVQLQESGRRPGAAGGSPRMSCAASGNIFWVAVMGRYRQAPGKERELVASIGFGCTTYYADSVKCRFTISRDNAKNTVYLQMISLQPEDTAVYYCAAPHYDWGELDYWGQGTQVPVSS | low polyreactivity |

| Sequence | polyreactivity (PSR sort gate) |
| --- | --- |
| QVQLVESGGGLVQAGGSLRLSCAASGGIFPYYAMGWYRQAPGKERELVADISSGGSTYYADSVKGRFTISRDNAKNSVYLQMNSLKPDDTAVYYCAADAGQYFTYSGDDNHDYWGQGTQVTVSS | low polyreactivity |
| QVQLVESGGGLVQAGGSLRLSCAASGSTFGTYGMGWSRQAPGKERESVADITSGGSTYYADSVKGRFTISRDNAKNTVYLQMNSLKPEDTAVYSCAASWFVWSTAVPYDYWGQGTQVTVSS | low polyreactivity |
| QVQLVESGGGLVQAGGSLRLSCAASGSTFGIYAMGWYRPAPGKERELVAAISSGGSTNYADSVKGRFTISRDNAKNTVYLQMNCLKPEDSAVYYCAVESVYEYGGYVDSAYDYWGQGTQVTVSS | low polyreactivity |
| QVQLVESGGGLVQAGGSLRLSCAASGSIFSYNGMGWYRQAPGKERELVATISASSVTTYYADSVKGRFTFSRDNAMNTVYLQMNSLKPEDTAVYYCARDAYSVYYYVFLHWEYDYWGQGTQVTVSS | high polyreactivity |
| QVQLVESGGGLVQAGGSLRLSCAASGIIIGANAMGWYRQAPWKERELLAAITSGGSTYYADSVKGRFTISRDNAKNTVYLQMNSLKPEDTAVYYCAADVFWLYSFTIYDYWGQGTQVTVSS | high polyreactivity |
| QVQLVESGGGLVQAGGSLRLSCAASGSIFGTNAMGWYIQAPGKEREFVATISSRTGSTYYADSVKGRFTFSRDNAKNTVYLQMNSLKPEDTAVYYCAAVRWYGKYDYWGQGTQVTVSS | low polyreactivity |
| QVQLVESGGGLVQAGGSLRLSCAASGFTFYYNAMGWYRQAPGKERELVATISGSGGRTYYADSVKGRFTISRDNAKNTVYLQMNSLKPEDTAVYYCAARYVWSRYGYWGQGTQVTVSS | high polyreactivity |
| QVQLVESGGGLVQAGGSLSLSCAASGLIFYYYAMGWYRQAPGKERELVAAISGSGGSTYYADSVKGRFTISRDNAKNTVYLQMNSLKPEDTAVYYCAAESQYTYGYGYWGQGTQVTVSS | high polyreactivity |
| QLQLVESGGGLVQAGGSLRLSCAASGFTFYAYAMGWYRQAPGKERELVAAINSGGGSRTYYADSVKGRFTISRDNAKNTVYLQMNCLKPEDTAVYYCAARVYGVDGYGYWGQGTEVTVSS | high polyreactivity |
| QVQLVESGGGLVQAGGSLRLSCAASGIIFYRYAMGWYRQAPGKEWELVAAITRRGGSTYYADSVKGRFTISRDNAKNTVYLQMNSLKPEDTGVYYCNARVRYTSADPSYYSWGQGTQVTVSS | high polyreactivity |
| QVQLQESGGRMVQAGGSLRLSCAASGYISWADYKGWYRQAPGKERELVAGIGYGSTTYYADSVKGRFTISRDNAKNTSYLQMNSLKPEDTAVYYCAVGWYRDSAYKYWGQGTQVTVSS | low polyreactivity |
| QVQLQESGGGPVLAGGSLRLSCAASGTIFVRLDMGWYRQAPGKEREFVATIGSGSSTYYADSVKGSFTISRDNVKNPVYLQMNSLKPEDTAVYYCAVSAAEQSRHYYWDQGTQVTVSS | low polyreactivity |
| QVQLVESGGGLVQAGGSLRLSCADSGFIFSLYAMGWYRQAPGKERELVAAISKRGGSTNYADSVKGRFTISRDYAKNTVYLQMNSLKPEDTAVYYCAKARPGFLYDHWVQGTQVTVSS | high polyreactivity |
| QVQLVESGGGLVQAGGSLRLSCAASGFTFYSNAMGWYRQAPGKERELVAAISGSGGRTYYADSVKGRFTISRDNAKNTVYLQMNSLKPEDTAVYYCAAKFTTGYYYGVPRDYWGQGTQVTVSS | high polyreactivity |
| QVQLVESGGGLVQAGGSLRLSCAASGYTFGNYAMGWYRQAPGKERELVAGISWSGGSTYYADSVKGRFTISRDNAKNTVYLQMNSLKPEDTAVYYCATRVQGYHNGWYDYWGQGTQVTVSS | high polyreactivity |
| QVQLVETGGGIVQAGGSLRLSCAASGFTFFRNAMGWYRQAPGKERELVAAISGSGGSTYYADSVKGRFTISRDNAKNKVYLQMNSLKPEDTAVYYCNAQKQIREPGNERLNYWGQGTQVTVSS | low polyreactivity |
| QVQLVESGGGLVQAGGSLRLSCAASGLTFVYYAMGWYRQAPGKERELVAVISSSGGSTYYADSVKGRFTISRDNAKNTVYLQMNSLKPEDTAVYYCAAPRQVYYQTDNDYWGQGTLVTVSS | high polyreactivity |
| QVQLVESGGGLVQAGGSLRLSCAASGSTFHTYAMGWYRQAPGKERELVASISYGVTTYYADSVKGRFTISRDNAKNTVYLQMNSLKPEDTAVYYCAREGYKWVYLSYGYWGQGTQVTVSS | low polyreactivity |
| QVQLVESGGGLVQAGGSLRLSCAASGLTFSYYAMGWSRQAPGKERELVAAISRGGRTNYADSVKGRFTISRDNAKNTVYLQMNSLKPEDTAVYYCAARFVVQGHSSPYDYWGQGTQVTVSS | high polyreactivity |
| QVQLQESGGGLVHAGGSLRLSCAASGTISFINMMGWYRQAAGRERELVASINFGANTNYADSVKGRFTISRDNAKNTVYLQMNSLKPEDTAVYYCAVYDFDAYTLYYWGQGTLVTVSS | high polyreactivity |
| QVQLVESGGGLVQAGGSLRLSCAASGTFKWYAMGWYRQAPGKERELVAVISSSGGTTYYADSVKGRFTISRDNAKNTVYLQMNSLKPEDTAVYYCNVVKRRSDWGMDYWGQGTQVTVSS | high polyreactivity |
